{
  "source": "a protein production outcome set (Wang et al. 2014)",
  "data": [
    {"test": "label from the status in PepcDB records", "values": [
      {"sequence": "MRLSELGTGEKGVIVKVLGHGGFRKRIVEMGFIKGKTVEVLLNAPLKDPIKYKVLGYEISLRRQEAEMIEVVSEEEAKKQAEKAVYHEGLPEDVSVKEEDMKRLALGKRRTINVALVGNPNSGKTSLFNLASGAHEHVGNYSGVTVDAKEGYFDFEGYHFRIVDLPGTYSLSAYTPEEIYVRRHIVDETPDVIINVVDSSNLERNLYLTTQLIDMNVRMVVALNIYDELESSGNTLDYHLLSKLFGVPMVPTVSKKNRGLDTLFHVVINLYEGVDFFDKQGNMNPEVLKDLTEWHDSLEDRKNHEEEHLEDYVREHKRKGRVFRHIHINHGPDLEKAIDAVKEEVSKNEFIRHKYSTRFLSIKLLENDPDIESFVRTLPNAGEIFRIRDKMAKRVQETMNEDCESAITDAKYGFISGALKETFTDNHLEQAQTTKVLDAIVTHRIWGYPIFFLFMYLMFEGTFVLGEYPMMGIEWLVGQIGDLIRNNMSEGPLKDMLVDGIVGGVGGVIVFLPNILILYFCISLMEDSGYMARAAFIMDKIMHKMGLHGKSFIPLIMGFGCNVPAIMASRTIENRKSRLITMLINPLMSCSARLPIYLLLVGAFFPNNASLVLLSIYAIGIFLAVLLARLFSKFLVKGDDTPFVMELPPYRMPTAKSIFRHTWEKGAQYLKKMGGIIMIASIIIWFLGYYPNHEAYETVAEQQENSYIGQLGRAIEPVIKPMGFDWKLGIGLISGVGAKELVVSTLGVLYVDDPEADEASLAERIPITPLVAFCYMLFVLIYFPCIAALAAIKQESGSWKWALFAACYTTGLAWLVAFSVYQIGGMFV", "protein production": "failed"},
      {"sequence": "MRLSRIKLPKINSLYGRIFAIFWFTMLLVLIAVLSLPHLDPRKARDIPDEHYQRIIETRDAIQNKYSKETDLGRILFRVEGNRAGKHDPRPRVFFSDYNGNVLTTDKRSNFQLRAMQNFVTSIEDYNKPKQRLYGRYMIAGPVPIVLADSELLMYVGFKWNEPPPLLLRLFDHPFQLLLAVMLVSTPLLLWLAWALSQPARRLEAAAQRVAKGEFVIDPNLEKGTAEFRQAGSSFNQMVEAVNQMISGQQRLLSDISHELRSPLTRLRMASALATRKQGDSPELVRIDTEAQRLEQMISELLELSRMQVNSHMTRETQPIESLWEEIIKDAQFEAEQMGKTLRYSEIPERHISGNPKLLMSAVENIIRNAIYYGKDEVQIDIQDKTDTLTITVDDNGDGVPDEELEAIFRPFYRVSTARDRHSGGTGLGLTITESAIRQHSGTIVASRSPLGGLRVSITLPLVKVGK", "protein production": "failed"},
      {"sequence": "MRLTTLWQNRSPGDRHLSTYFCFAAVRLLLVFVPQLGYVHPDEFFQSVEVMTGDHFRLEHTRTWEFNNSLPVRSIVLPFALLRIPWSFYEFVAECLKAWWQLELLGTYAYVVFPRLIYTLISFSNDYCLFRICRLYGLRFEIRLLAMGSSWILLVFGTRTFSNSLEMAMCSWLLCLVSECMLRTNTVVYKKEFLEEKYDKAESISERVRIWKLKNSLPAHNLQHLMAMSTICVAGVFNRPTFLLFGAPMVFFWLLRGMGTRSITFRDFNLRIALFCLCALPALVLFIFCDSLYYQHLTLGELHMMHLSIDNFVFTPWNFIKANLDSAQTASHGVHPCYVHLMVNMPMLFNVLALASLGAFAQLLLRFFRAEYQVLPRFQSIVSLMSGAIFVPLFFLSLINHQEPRFLLPVTFPLILLHAPKLITGFSAKYPFQKDHPLLRLFYDKLLSSKASGPYLLKIWYVSNVALTLFFGFIHQAGVYPLAADISHVIATKPAATHVHLITSHIYSLPLHLINIPSSRVLHFNRLTHQRYRRPRDFYMYEYGGLPLDSLLQKVKLISGSCEVKKSGPSRRRYKLYLAIPASLSADLHEALVHSNASSYLNFELLKVFYPHLSTEAFPHLQGRHPCDVDAPHWAHDDLRGTCSAEQLPAFSFAYLNKQFSSFVHQLGLALYEIDVTRNKPRYVSLAYSGCSPTKGYFLLFIQFLICLALCIAAAQAGFIASPVTTYAAAPAYAASYAAPVAYSAPVATYAAAAPAYSTYAAAAPAYSTYAAAAPAYSTYAAAAPAYTASVYSAPAYTAPVTTYAAGAAYAAPVTTYSAPAIVSPILKKK", "protein production": "failed"},
      {"sequence": "MRLVADSACDIKELRGMVFKAVPLTISTDNEEFCDDGQLDIHRMLDILEKHKGRSYTACPGIDAWLEAFGDDDEIFVVTITAGMSGTYNSAMAARAVYLEEHPQAKVRVIDSKSTGPQMRIILEQLQQMIEEGKKFEEIDGAIDAYMQKTRLFCSLKSLHNLAQNGRVSKVVASAAEVLGISVIGTASSHGTLEAIGKCRGDKKLLVKLQALLDDAGYEGGKLRICHVENEALADKIADMIKQAYGTTDVCVYKAGGLCSYYAERGGIILSCETK", "protein production": "not failed"},
      {"sequence": "MRLVEIGRFGAPYALKGGLRFRGEPVVLHLERVYVEGHGWRAIEDLYRVGEELVVHLAGVTDRTLAEALVGLRVYAEVADLPPLEEGRYYYFALIGLPVYVEGRQVGEVVDILDAGAQDVLIIRGVGERLRDRAERLVPLQAPYVRVEEGGIHVDPIPGLFDLEHHHHHH", "protein production": "failed"},
      {"sequence": "MRLYTRTGDKGKTSVIGGRLAKDDTRVVAYGTTDELNSFVGLAITQLDENTFADIRGELFKIQHELFDCGGDLAMLKVKEDRPYKAKQEIVDFLEQRIDAYIKEAPELERFILPGGSEAAASLHVCRTIARRAERYVVRLQQEGEINPIVLKYLNRLSDYFFAVARVVNSRLQVPDVEYERSAIVFREGKRKEDKK", "protein production": "not failed"},
      {"sequence": "MRMAATAPAFPELEGRHPCFSTTAEGHARAARLHLPVSPGCNIDCAFCIRDFNRRDQRPGVATRLLTPEQAVAIVARALELCPSINVVGIAGPGDPLATPHALQTFALVRERWPELVLCLSTNGLMLPDRIDEIAGLGISTLTVTVNAVDPQIQAQVTPKIAWQRKRLNGVVAGERLIANQLEGIARAAAHGLTVKVNTVLIPTVNDHHIETIAERVAAAGANLINIIPLIPQHGFAHLKPPGMLMRYAARTAAEKYLRVFTHCQRCRADACGIPGVSDYAQQLYGDDIVAEPTFSHG", "protein production": "failed"},
      {"sequence": "MRMFFSGLMESLKENKITFLWVLLFFLVGIVLGSYTVYYMSDFNRVEITTYFNNFLEFLGGNSVSYTSILVDSIKSILPMVAIIVLLGYTAVGTPIILMMDLAKGYVIGFTFSLIVSMLGSKGVMLVLSGLMLQNLIFIPIIMLISVLAIRHSVTKLKMGVSRDRVKLDVSRAYLNFQGLLSLIIISGILIETYISPNLIRLVISR", "protein production": "failed"},
      {"sequence": "MRMGLKADSWIKKMSLEHGMISPFCEKQVGKNVISYGLSSYGYDIRVGSEFMLFDNKNALIDPKNFDPNNATKIDASKEGYFILPANAFALAHTIEYFKMPKDTLAICLGKSTYARCGIIVNVTPFEPEFEGYITIEISNTTNLPAKVYANEGIAQVVFLQGDEMCEQSYKDRGGKYQGQVGITLPKILK", "protein production": "failed"},
      {"sequence": "MRMILMFDMPTETAEERKAYRKFRKFLLSEGFIMHQFSVYSKLLLNNTANNAMIGRLKVNNPKKGNITLLTVTEKQFARMVYLHGERNTSVANSDSRLVFLGDSYDQDLEHHHHHH", "protein production": "failed"},
      {"sequence": "MRMNIRVALPQAQVHWCRGWLQAAHADALMQALLDQVQWEVHRIRMFGRVVDSPRLSSWIGDADASYRYSGTQFAPQPWLEALQPVRTRLQDETGSPFNSVLVNRYRSGADAMGWHSDDEPELGAQPVIASLSLGAARRFAFKHRHDAALKQTLELGHGDLLLMGGDTQRHYKHALPRTVKPVGERINLTFRQIAVRVSQRLEHHHHHH", "protein production": "failed"},
      {"sequence": "MRNEAFDILKDIPKWKLIFWLLLAITLTPITELIIYRLVTSVIESSLTLTELGKEFIRIFGYEKYKGIKESLWMMIVSYLFLFSIFSSYLYIFYRHEKKLYYETCIKKMIEEIRYIANGNFNHKVSIVNHNYLEELAIGVNEIVEQLKVSIDEERQAEQAKSELITNVSHDLRTPLTSIVGYVNLIHHDNYRDEVELRYYIQVIYDKVTRLNALMNDLFEYTRVQNKELSLYSVPIDIVELLGQLTVQFRIQVQEANIECRPSFPSQKLMVLADGDKLVRVFENLIINAIAYGSEGRYIDLTAYESNNMITIDITNYGQPIPSTDLPHIFERFYRVEKSRSTNTGGSGLGLAIAKSIVELHKGTIEVYSDDEKTTFTVKLLPYKC", "protein production": "failed"},
      {"sequence": "MRNHPLGIYEKALAKDLSWPERLVLAKSCGFDFVEMSVDETDERLSRLEWTSAQRASLVSAMLESGVAIPSMCLSAHRRFPFGSRDEAVRQRAREIMTKAIRLARDLGIRTIQLAGYDVYYEEHDEGTRQRFAEGLAWAVEQAAAAQVMLAVEIMDTAFMNSISKWKKWDEMLSSPWFTVYPDVGNLSAWGNDVTAELKLGIDRIAAIHLKDTLPVTGDSPGQFRDVPFGEGCVDFVGIFKTLHELNYRGSFLIEMWTEKSSEPVLEIIQARRWIESRMQEGGFTC", "protein production": "failed"},
      {"sequence": "MRNIYDLANELERGIRALPEYKNLVEKKEAIATDAEASALFKEFTDFQEDFYAKMQAGTMPTAEEQAAVQELGQKVEANALLKEYLTAQQSLSVYLNDIERIIFKPLQELNN", "protein production": "failed"},
      {"sequence": "MRNIYSIYKEHYKALISLGLPIVIGQIGVIVLGFADTLMIGHHSTIELGAASFVNNVFNLVIIFSTGFSYGLTPIVGGLYGTHQYASAGQALRNSLLANLLVAFLLTIGMTVLYFNVGNLGQPEELIPLIKPYYLVLLASLVFVMLFNGFKQFTDGITDTKTAMWILLGGNVLNIIGNYILIYGKLGLPEMGLLGAGISTLFSRIMMVVVFIIVFMRSPRFLRFKLGFYRLGWSKAIFGRLNSLGWPIAFQMGMETASFSLSAVMIGWLGTIALASHQVMLAISQFTFMMYYGMGAAVAVRVSNFNGQGDILNVRRSAYAGFHLMMALGVVLSSIVFLCRNYLGGWFTDSTEVAAMVTSLILPFLVYQFGDGLQITFANALRGISDVKLMMLIAFIAYFLISLPVGYFCGFVLEWGIIGVWMAFPFGLTSAGLMLWWRFHHKTKLPPSIQNS", "protein production": "not failed"},
      {"sequence": "MRNPFERMPTVLTADELIDKAFRRAEKAASSFKPRGNKVKKARLREELRVRTVSNVVRDNLRKVLERTPGLSTLPKFYQELVDVLVDRDTFHKAMAGIDWAIRIIRELEERYVERIRYSNDPNEIAELRRQFYGRVASVLRDIDDRLRYLNKAREVLKDLPVVDLEIPTVVIAGHPNVGKSTLLKALTTAKPEIASYPFTTRGINVGQFEDGYFRYQIIDTPGLLDRPISERNEIEKQAILALRYLGNLIIYIFDPSEHCGFPLEEQIHLFEEVHGEFKDLPFLVVINKIDVADEENIKRLEKFVKEKGLNPIKISALKGTGIDLVKEEIIKTLRPLAEKVAREKIERELRRYRSYL", "protein production": "not failed"},
      {"sequence": "MRNRLPPAWAKHLKTQPSVKVAMPKATLPKAQPNASPPRSQADDMLLRQALELQQAKRLPEAEELCLRVLARTPNHPLAYYILGTLGIGYDNEKALRYFARAVAEEPQNPYYHLSLGETYLKVSEFTPAIRHIQQALDLKPDLVEALCALGDAYNEFDKGELALPLFEKALKIDRYHPLARLGLPYALASLGRMDEAAVLLKEAIDRRIALPTAYGALVQTRNFTEEPPELESILAELRDPDLGSEDASALHHAAGKVLNDLGRYKEAMVHYKKGNQAGGHKFDLENYRRWIDAMIETFTPELFASRAAYGNPSDAPVFVVGMPRSGTTLTEQICASHPNVHGAGELGKLRRVANGIGLANRSNTNFAESIATFTPDLTRALAGEHLAYLRERAPDALRIVDKMPHNFELIGLIGILFPNARIIHCRRDAIDNCISCFVLRFNEAHSYSADLQTLGLYYREYDRLMRHWNKVLPGRIFENRYEALIENQEQQSRRLIDYLGLPWDDACLRFFDREGSVNTYSRWQVRQPIYTSSIKRWRNYESEIQSLIESLGDLAET", "protein production": "failed"},
      {"sequence": "MRNRTLADLDRVVALGGGHGLGRVLSSLSSLGSRLTGIVTTTDNGGSTGRIRRSEGGIAWGDMRNCLNQLITEPNVASAMFEYRFGGNGELSGHNLGNLMLKALDHLSVRPLEAINLIRNLLKVDTHLIPMSEHPVDLMAIDDQGHEVYGEVNIDQLTTPIQELLLTPNVPATREAVHAINEADLIIIGPGSFYTSLMPILLLKEIAQALRRTPAPMVYIGNLGRELSLPAANLKLESKLAIMEQYVGKKVIDAVIVGPKVDVSAVKERIVIQEVLEASDIPYRHDRQLLHNALEKALQALGLEHHHHHH", "protein production": "failed"}
    ]}
  ]
}
